Measurements from publication PMC9274004, “Deciphering the Molecular Interaction Between the Adhesion G Protein-Coupled Receptor ADGRV1 and its PDZ-Containing Regulator PDZD7” (Frontiers in Molecular Biosciences, 2022).
One block for each molecule: values may come before it.

Tests used:
harmonin supramodule = settings: for protocadherin-15; ref Michel et al., 2020; cited from earlier work
Description: These folded extensions modulate the affinity of associated PDZ domains for their partners and promote the formation of domain assembly. In harmonin, this extension folds as a hairpin followed by a short α-helix mediating the formation of a heterotopic supramodule between the first PDZ and the upstream Harmonin Homology Domain (HHD) and forming direct contacts with residues upstream of the partner’s PBM ([Yan et al., 2010]) (PDB e ...

[1] = target: T1, PDZD7 PDZ tandem (P1P2 construct; A81 to G313) (mouse); assay: other fluorescence titration; tryptophan fluorescence (excitation 295 nm) of P1P2 at 2 µM in Phosphate Buffer pH 6.6 (50 mM) on progressive addition of ADGRV1pbm peptide or the cytoplasmic domain; apparent Kd
T1 sequence (E9Q9W7 81-313, looked up): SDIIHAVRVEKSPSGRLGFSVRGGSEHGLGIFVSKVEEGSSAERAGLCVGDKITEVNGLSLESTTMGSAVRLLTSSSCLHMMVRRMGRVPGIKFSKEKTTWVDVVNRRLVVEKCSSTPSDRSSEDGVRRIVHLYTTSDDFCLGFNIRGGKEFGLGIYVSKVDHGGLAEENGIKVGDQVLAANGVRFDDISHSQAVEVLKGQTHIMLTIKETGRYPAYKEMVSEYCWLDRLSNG

[2] = target: PDZD7 PDZ tandem P1P2 G103R (mouse); assay: as above
[3] = target: T2, PDZD7 second PDZ domain with its C-terminal extension (PDZ2ext construct; G206 to G313) (mouse, UniProt E9Q9W7-1 206-313); assay: other fluorescence titration; tryptophan fluorescence (excitation 295 nm) of PDZ2ext at 5 µM in Tris HCl pH 7.5 (50 mM) on progressive addition of ADGRV1pbm peptide; apparent Kd; settings: both partners purified
T2 construct: also called PDZ2ext WT; source: E. coli BL21 DE3, purified (GSTrap, on-column TEV cleavage, SEC); not shown: GST, N-terminal, cleaved
T2 sequence (looked up): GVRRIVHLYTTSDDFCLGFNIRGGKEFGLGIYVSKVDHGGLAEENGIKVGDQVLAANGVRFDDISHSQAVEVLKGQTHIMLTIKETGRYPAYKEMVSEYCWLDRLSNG

[4] = target: T3, PDZD7 first PDZ domain with its C-terminal extension (PDZ1ext construct; A81 to E192) (mouse); assay: NMR titration; 1H-15N HSQC chemical shift perturbations of the labelled PDZ construct on addition of ADGRV1pbm peptide; Tris HCl pH 7.5 (50 mM), 25°C; apparent Kd, mean over at least 10 shifting peaks
T3 sequence (E9Q9W7 81-192, looked up): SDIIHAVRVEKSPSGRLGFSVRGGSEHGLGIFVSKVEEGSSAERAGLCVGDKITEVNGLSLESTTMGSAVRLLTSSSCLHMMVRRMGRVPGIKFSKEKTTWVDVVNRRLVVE

[5] = target: PDZD7 PDZ1ext G103R (mouse); assay: as above
[6] = target: T4, PDZD7 second PDZ domain (PDZ2 construct; G206 to G292) (mouse, UniProt E9Q9W7-1 206-292); assay: MST; label-free; PDZ2 at 140 μM in MES pH6 (50 mM) mixed 1:1 with a serial dilution of ADGRV1pbm peptide; apparent Kd; settings: both partners purified
T4 construct: PDZD7, mouse, long isoform (Uniprot E9Q9W7-1), residues 206-292; source: E. coli BL21 DE3, purified (GSTrap, on-column TEV cleavage, SEC); not shown: GST, N-terminal, cleaved
T4 sequence (looked up): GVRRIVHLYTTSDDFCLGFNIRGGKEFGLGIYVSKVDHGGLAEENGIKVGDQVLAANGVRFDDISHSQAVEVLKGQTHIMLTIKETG

[7] = target: T5, PDZD7 first PDZ domain (PDZ1 construct; A81 to G167) (mouse, Natural entry residue kept at 81: the paper prints A81 but the entry has Ser, so the Ala is probably a cloning junction or a misprint. The GST tag was removed by TEV; a short N-terminal scar is possib); assay: NMR titration; 1H-15N HSQC chemical shift perturbations of the labelled PDZ construct on addition of ADGRV1pbm peptide; Tris HCl pH 7.5 (50 mM), 25°C; apparent Kd, mean over at least 10 shifting peaks; settings: both partners purified
T5 chain: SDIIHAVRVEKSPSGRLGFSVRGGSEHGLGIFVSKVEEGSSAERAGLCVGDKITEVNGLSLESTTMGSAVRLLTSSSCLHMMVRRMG

[8] = target: T3, PDZD7 first PDZ domain with its C-terminal extension (PDZ1ext construct; A81 to E192) (mouse); assay: NMR titration; chemical shift perturbations of PDZ1ext or N-PDZ1ext with the whole ADGRV1 cytoplasmic domain or the PBM peptide; apparent Kd, mean over at least ten shifting peaks; buffer not given for these titrations
[9] = target: PDZD7 N-terminus with PDZ1 and its extension (N-PDZ1ext construct; M1-E192) (mouse) (UniProt E9Q9W7); assay: as above
PDZD7 N-PDZ1ext = target: T6, PDZD7 N-PDZ1ext (Mus musculus, UniProt E9Q9W7); assay: NMR titration of N-PDZ1ext with ADGRV1 ligands; assay type: binding, murine
T6 construct: including the N-terminus of the protein (N-PDZ1ext construct; M1-E192); GST (followed by TEV site) (N, cleaved yes); made in house; host or cells: E. coli BL21 DE3
T6 sequence (E9Q9W7 1-192): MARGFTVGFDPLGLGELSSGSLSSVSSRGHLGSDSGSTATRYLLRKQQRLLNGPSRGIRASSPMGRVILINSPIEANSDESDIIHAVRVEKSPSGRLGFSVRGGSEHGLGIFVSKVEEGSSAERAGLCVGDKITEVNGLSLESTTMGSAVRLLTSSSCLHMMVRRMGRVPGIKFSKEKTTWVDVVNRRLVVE
Method: (§1) All experiments were recorded at 25°C on a Bruker 800 MHz spectrometer equipped with a triple resonance ^1H{^13C/^15N} cryoprobe. The ^1H, ^15 N and ^13C backbone resonances assignment of PDZ1ext was carried out using 3D HNCA, HNCACB, HNCO, HNCOCA experiments (Tris HCl buffer adjusted to pH 6). The 2D ^1H-^15N HSQC spectra used to compare PDZ1, PDZ1ext, PDZ2 and PDZ2ext were recorded in Tris HCl pH 7.5 (50 mM). The 2D ^1H-^15N HSQC spectra used to compare PDZ1ext, PDZ2ext and P1P2 were recorded in Phosphate Buffer pH 6.5 (50 mM). Titration experiments of PDZ1 (WT), PDZ1ext (WT) and PDZ1ext (G103R) against ADGRV1pbm peptide were performed in Tris HCl pH 7.5 (50 mM). Averaged Chemical Shifts Perturbations (CSP) were calculated as: Δδavg = ((Δδ(^1H))^2+(Δδ(^15N)*0.159)^2)^½. For the determination of dissociation constants (Kd) of each peptide/PDZ interaction, averaged CSP δavg was plotted as a function of the molar ratio (peptide/PDZ) for several peaks and fitted using nonlinear regression and assuming a simple complex formation model.
The P1P2 tandem of PDZD7 is preceded by 80 residues with no predicted secondary or tertiary structure, but which could contribute to the interaction with ADGRV1. […] We first aimed at identifying potential secondary structures in both PDZD7 N-terminal region and ADGRV1 cytoplasmic domain. To this end, we produced both an extended PDZ1ext construct, including the N-terminus of the protein (N-PDZ1ext construct; M1-E192) and the whole ADGRV1 cytoplasmic domain of 152 residues.
On the overlay of PDZ1ext and N-PDZ1ext HSQC spectra, there is no significant chemical shift changes on PDZ1ext due to the presence of the N-terminal region (CSPs <0.04 ppm). […] We used the entire cytoplasmic domain of ADGRV1 as partner of PDZD7 in NMR and fluorescence titrations experiments. […] Finally, we measured Kd values in the few micromolar range between the tandem P1P2 and the whole cytoplasmic domain and the last 13 residues of ADGRV1 by fluorescence experiments.

PDZD7 PDZ1ext (81-192) = target: T7, PDZD7 PDZ1ext (81-192) (Mus musculus, UniProt E9Q9W7); assay: NMR titration of PDZ1ext with ADGRV1 ligands; assay type: binding, murine; settings: NMR titration, 25°C; apparent Kd, SD over at least ten shifting peaks; ligand whole cytoplasmic domain; read-out: Kd (Cyto)
T7 construct: PDZ1 (81-167), PDZ1ext (81-192); GST (followed by TEV site) (N, cleaved yes); made in house; host or cells: E. coli BL21 DE3
T7 sequence (E9Q9W7 81-192): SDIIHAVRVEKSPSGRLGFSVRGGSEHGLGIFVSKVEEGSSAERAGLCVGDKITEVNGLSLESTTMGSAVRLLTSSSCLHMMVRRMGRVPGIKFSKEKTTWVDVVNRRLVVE
Method: as §1, with “For the determination of dissociation constants (Kd) of each peptide/PDZ interaction, averaged CSP δavg was plotted as a function of the molar ratio (peptide/PDZ) for several peaks and fitted using nonlinear regression and assuming a simple complex formation model.” left out
We monitored the interaction between PDZD7 constructs and a peptide (ADGRV1pbm) corresponding to the last 13 residues of ADGRV1, encompassing its PBM (sequence VELRRIPIADTHL-COOH; PBM underlined). We measured apparent Kd values of our constructs towards ADGRV1pbm using several biophysical methods (NMR, fluorescence, MicroScale Thermophoresis (MST)) (Table 1; Supplementary Figure S3–S5). […]

Molecule: protocadherin-15: partner of harmonin supramodule
increased affinity of harmonin supramodule vs isolated PDZ (harmonin supramodule): ~10 fold

B2: ADGRV1 whole cytoplasmic domain (domain or fragment)
chain: HNQTCCPMKASYTVEMNGHPGPSTAFFTPGSGIPPAGEINKSTQNLINAMEEVPSDWERSSFQQTSQASPDLKTSPQNGASFPSSGGYGPGSLIADEESQEFDDLIFALKTGAGLSVSDNESGQGSQEGGTLTDSQIVELRRIPIADTHL
Kd [1]: 8.1 µM
Kd [8]: 41 µM
Kd [9]: 241 µM

Other lines, results leading:

Kd [1]: 1.6 µM
Kd [2]: 1.9 µM
Kd [3]: 3.1 µM
Kd [4]: 47 µM
Kd [5]: 1190 µM
Kd [6]: 313 µM
Kd [7]: 1310 µM
B1: ADGRV1pbm peptide (last 13 residues of ADGRV1, with its PDZ binding motif) (peptide)
peptide: VELRRIPIADTHL
notes: ADGRV1, last 13 residues, free C-terminal carboxylate as printed (-COOH); The other ADGRV1 constructs are murine

Kd (PDZD7 N-PDZ1ext; NMR titration, 25°C, SD over at least ten shifting peaks, ligand whole cytoplasmic domain, read-out: Kd (Cyto)): 241 ± 115 µM
decrease in affinity (PDZD7 N-PDZ1ext; due to the long unfolded N-terminus region, N-PDZ1ext vs PDZ1ext): 6 fold
Kd (PDZD7 PDZ1ext (81-192)): 41 ± 14 µM
B3: ADGRV1 whole cytoplasmic domain: whole ADGRV1 cytoplasmic domain of 152 residues, murine long isoform (CCDS36737; 6149-6298) (protein)
chain: HNQTCCPMKASYTVEMNGHPGPSTAFFTPGSGIPPAGEINKSTQNLINAMEEVPSDWERSSFQQTSQASPDLKTSPQNGASFPSSGGYGPGSLIADEESQEFDDLIFALKTGAGLSVSDNESGQGSQEGGTLTDSQIVELRRIPIADTHL
modifications: left off: Histidine tag, N-terminal, cleaved
